These sequences were tested on Saccharomyces cerevisiae (assay: transcriptional activation domain activity (GFP:mCherry ratio, weighted mean of sorted bins, harmonized to initial dataset scale) (arbitrary fluorescence ratio units); higher = stronger transcriptional activation). Settings: beta-estradiol 1 µM; induction time 4 h.
Method in brief: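 Each value is an activation activity: the read-weighted mean of bin median fluorescence, averaged across barcodes, then mapped linearly to the initial dataset scale. The tiles, fused to an estradiol-inducible synthetic transcription factor, sat at the yeast URA3 locus in GFP-reporter diploids. Cells spent 4 hours at 30 °C in SC with 1 uM beta-estradiol before sorting into 8 GFP:mCherry bins, and tiles below 50 reads were removed.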

Row | Sequence | transcriptional activation domain activity
1 | LKDEVMKIKPVQKQTRAGQRTRFKAVVIVGDSNGHVGLGIKTAKEVATAIRAA | 81600
2 | IVLGFLPIKSWQQHCFYIIMSFGSFVSTAFYSRFVELWGLLWPLWYLTILICV | 42600
3 | KAAAAPKKKKAGVSDEEEKEEEEAESTPVDEDPKPKTKKLAAAKKPAAAAAAK | 33700
4 | MSTGVSSFLQYVFLFTPYFIFSYFLAVDCWCFSLPLFCLAIPSIFLFLFLFLL | 24900
5 | EQDSWNAQLDFFNHIFYTQLYPAYDLPKKLQEDTELETEQENQMLNQVGNINY | 109000
6 | MGLWARFICFVIVCFQITFLYCLFSCSPSFLYFQKTQPLFFTFFFSFPSFLLL | 56800
7 | TGYKKKKLGHPSEKVVERHASCEPGTRLYSQKLFGRYVLRLLFVVAYMFVKSF | 34800
8 | AILKCIACHNGAMDSVRLLSVLTVPSGPALAHVHLCLLRYLKNRVISEQFGPS | 21100
9 | ALNDPSILETLSPFFQPFGVDVAHLPMTNPPIFQSSLPGCDEPIRRRRISISN | 81300
10 | FARVLLNGWFRTFHKVVSTAECVAWLVLFLPYAIGVLLVVRCVLGFHDIPKPK | 45500
11 | ILPRWIQVAITFVALLAVSCIVMVVGLIVKYWTLSVSFGHFLSRFAVLRYIVL | 58500
12 | NVQPTANAASANAAAAAAAAASNSYAIPENELLDEDTMNFISSLKNDLSNISN | 59700
13 | MIPPIHSPSFLQSYICFMLILPLPLMSIIVFHPLYFFWLFLSFLLLDYYLLLL | 23300
14 | NPSSAPAQTATTAASGTPSLFGSKPAQATGAPSSLFGGQPAAASTGASTQATP | 24200
15 | HSALSRSEVSGTGRKAYAQKGRGKARVGSLRAPHFRGGGRAFPVKPRDHSTKL | 17000
16 | IRLLFVWIVCTRIVLASRSACGRCYRSYLAMRSRSGWRWVSRRTAAVLVLRWC | 61500
17 | LLRALSDLRRWRRKYTMLLELPDPFKSQRQHAHEYQLAIPLVEEAVLSFFLFL | 57600
18 | MVSFYYICSCAGSCWMLNARLHLWGLIFTVIFGDTVHVICLLFWFYFYRPPPF | 41200
19 | SMRDSASDQETSWELQMFKTENVPESTTLPAVDNNNLFDAVASPLADPLCDDI | 53300
20 | IILRIVGAPNWIQFWSLGRNQVDLLLVISTCVIQLPMIQNLDIYKYLTIFQVF | 81300
21 | HGTHCSGTVAGKKYGVAKKAHIKAVKVLRSNGSGSMSDVVKGVEFAAESHAGE | 38600

Row | Sequence | transcriptional activation domain activity
22 | RFISLAFFDVVSCSVWLSIYHLLVLRFFLDLQSCLSFLLLYIRPSFPCLLIPR | 50500
23 | GNAVYMSMDLPDTTFALSKLLNYIEWNRAKLFSFAFFVCVWTYFRHYLNLVIL | 46000
24 | TPDSLCEAVTDLVRDIWYPLMTWMEFANPASGYISLDAPLFRAVLSLFHHFFA | 42900
25 | YLFYRLGLNIREIQLRSRGLILLQSLSVLGWSLLASSFSGLYFIGYPCFIHWW | 42700
26 | AATSEATTVFWHDPSGFVDRLLGLTRFWFFTLLRYSYRVYFLASRERSRKPLS | 66100
27 | AAEEEDEEAKPLPAKKKRSSKKRKAEDAAEPEEKPAAKKKTAKVSGRGKKAAD | 16300
28 | SHSGVSRSGKRDASRSTSASGLGRNNGNASASGNGSRKGKRRSEGAGGRGKRV | 13500
29 | DALGLRRPSLYYKALVAGQCIFFMALCYTYRMIPYLDQKKIKTLKKVFFRIII | 68800
30 | VCVRVDWPWLSFPTALVLLTVVLFVTVLVIARRSQVSEGQPIWKSSSIVAFFH | 41100
31 | FLLTLLCMEVVLHFDYCVAISKANPDWSKYTPIQLSLLSYFNLHILWLKLLIP | 63400
32 | NLLLFPGISFKTQLLYAIVFCTRYLDLFIRFVSIYNTLMKIFFIGSSFYILYL | 67300
33 | MELFFGLSFFLAYVPGCYSFLLTILIPLLCYYIFTRYLRCLVLHGLGFFFSLF | 77000
34 | MMNKTPGFLSLIPPFVIDLILLRCCLDPNISLNVTYRTLYFLMWFFQSVYLAV | 53200
35 | IDDFEQFRTEYTIDLSDFQNTERLKFLEEYYWKTLNFTTPMYGADTPGSIFPE | 93300
36 | KFYVIYTLFMVVFFMVLTICYYTNGSYGRDALGLCNFKEWNGRLVSRVYMMYL | 45000
37 | KWIIPTPFASHAFNPCDGFLQSLPYHIYVYMIPMHKYLYLLMFVLVNFWTVMI | 49700
38 | PCKCHTKRKSSRKSKGGSCHRRANDEAAHVNGLGIADLDVLLGLNGRSSDVDM | 44000
39 | MCLCLLLLLLLHVFIFFMSFYPSGWPPSYSIIFFLWSFILVVFYPCKFFFLVV | 70400
40 | LQKDKFKVELQLLDIRVSDKLLMGIEKAIREFLTQKFVICRRVFVPWVPKVLF | 61500
41 | MLFLPSYSFSVFLFLFLLFALTVQVCLFLFTTWLVSCFDMYVFVWVGVCLCAR | 47700
42 | MREAERAREEQEQERRRVEKVREREREREQERLERERLKAERERAAAAAVVAA | 40100

Row | Sequence | transcriptional activation domain activity
43 | WSVVFPLQEEEKKKNEEEGLAFPSLDNIKGILRPDSCMRLGSSANIVVLTFPD | 53600
44 | RKGSVAKEMIDGRVGRREKGGQGDNRGRKRTRRGSGERKRSDKKGRREKRNRK | 42300
45 | GCEPKNQRIFYFHVLILQRSLMARLERHEEGLSTKEWRLVLGDHYWISHWKKV | 51400
46 | WAPLNVGLERRLQTFVVLCHTLTIPIFLTLFFFLCAIPLFWPLLIPYLIYILL | 34700
47 | MVVFLFSFRVWVLLWICKISFINFVPMSTCRGLMVVRLRLNQTWGIRSLVPWL | 29600
48 | MKHETLFFLFCRSLTRFFPMFGASFFFVLFLDLFVFVFCVVYGYSRFIFFLFV | 50300
49 | MDRQQNGSKRTESVRQPVSCEPCRRRKIKCSRSHPPCDTCRRRRCPDSCVYKS | 43700
50 | TDYYQAVGQHDFIKAFHDEIGPFHRKVYDNVIRKIFVLLAIILELPENYFVDR | 40900
51 | YRLLLSLVVRLYFFLRFSLSHTLRTVVIVLAPLTYFLSGITYIFFTAPYRVLF | 61800
52 | LFSPFPPSISFPLSSHSSLPPLFPPLFPPLFPPFLPSLCFPLFPSLPFPPLPL | 19500
53 | TGGSLFGANKPAFGNAASTSGPFGGGASSGFGGNTGAFGSPASTALGATTGEC | 51300
54 | MLVVELLPAIESFFGHIFCTDFMFCFLFFYIIYIFFFSRFSVIANYTVMSLYF | 85300
55 | SALRYYFKVELYNLPARQWFERCFFTPLEVFNTAWLAYILLAQTTGSMVNCAC | 38200
56 | RQREGQIERRGEGRAWRTEGGARGGRRKGARREKGTGREGRRRARKKAKRDRP | 27600
57 | IVCGCMGAAGFRYFLNLPFLWFFLLHWCWWFTNDYLLYHVLVQEHTLPFNKFV | 32500
58 | DSKLRATALQVRRGGNCPNTVEVLQQLLLSGGGLDTSSSQTQQVSAADAAAVT | 33300
59 | MICCDLSFGGKLFCKQLFLLLLVFCAILHYNWRWVYSDVLVMILMLAMIISLA | 43600
60 | AWWIGLSGGLYGCITLMPIFFHDSPYYAPLSFTAWFLYMESFWYLPFLDLCYL | 46000
61 | SSTNPGTESAKPEKPKRAPRQKASSKKADSKPKRTTARSKKAVKLAAEKLLSP | 15600
62 | DVDWWNVSSSETTFDAASLPLDVWDPLLPHDTGLSEIEVTTCWLDPWIIPFIT | 132000
63 | MALPKDRDEEKEDEKDNAPKKGKRGPRKRVSQACDRCRTRKDKCDGKKPSCST | 20800

Row | Sequence | transcriptional activation domain activity
64 | GAAEVDAAAPEGAETIEGAPAATEKQPRPPKKPRTPRPRRPAGEEPAGEPSKN | 29700
65 | FCFYPFQKQWVMFSLTKDSLQLAHKFNFTRVPLPQRLRAVYLYARFAWRIFLL | 33000
66 | LAHCGCSQSLLLLLFSFPYRYYIILFHYWVLRGGLTIPIYRVLCGFFLPSFVL | 62200
67 | GYLHHILKLFDCAFGISYPQLHHVLEVRTRALLLAGLNLTFVLDGPLPMWKAA | 54900
68 | MTFVSEALITHRIDGGDIGVVNIFSKNKWRSKVYVRILVQICMRWVMMAIYLN | 55700
69 | HHLSSQLVFSRSRFFYSSFTSWINVFLVISLIVFLLSILLLFLIIFLLHYIFF | 24800
70 | MVAVVEVWVGEGVGEFWHLVKVWEGFLKLEYPVFFFDVWFFYDPFFCALGFFI | 79300
71 | QQQEEEEKKKEVGGEAEGYEERVINMGAKNSAPMKAGDRIIICTPGGGGWGKS | 9620
72 | MDLYFMDLFIVILWCGFIVYLVYFLFFYYESGLVYLYIINSMGLCCESGVLFV | 67500
73 | NGGCDYVFSMYVLGAGLWLFIFFLPPIIFSIVCLCYLALIWAVSWVLLWCLVF | 49600
74 | EDEEASAAHAAPPTTTTAGGRGKKKKGGASRKKENSAAPSKSAKASAPANIPP | 20700
75 | SSFFFFSFFPGPFLLLYLWICLYPFFLFLGHPFSLGFFLLNYLLFSTATLVAG | 36200
76 | EEGAATDGTADANGKPKKAPRKRKSQAGATTEDGQAPKRRKKKSTDAAGGAAA | 31300
77 | ADEEDLSSKPRCQRCRKSKKGCDRQRPCGRCKDAGIGIEGCVSEDEGNGRKGR | < 6570
78 | LIGMDQDVLGRWSQVIGEKGEGSLFSLALGPHQSNWLVLIRQACLLLLRSVAA | 51200
79 | EDEEEEEEEQEEEEEKEEEVLWAAAPEGGKPVEEEEEEEVVEAEEKKPGEEDA | 24500
80 | TGGLAELQDTLDDARASFAYVRVKYSNDKESQREKFILIVWIGKSVKVMRRAK | 33600
81 | TSRAPPSASPPTASHGAPTPPPPSPSSSPAPATPSSHPCPPTSSSSRPPSSPP | 41800
82 | RNLAAAAAGATAVGLAAKAIHDHRARSRSRSSSASGSDRGHRHNAVLGLGAAG | 42100
83 | AGALLDLYLRRNRCYVSNGYLGCSVLYLSTSLVVSCFLSWVTATILIILDIKR | 83600

— the supplement of paper PMC12636428
